The target in assay [1] is integrin Mac-1 (αMβ2, CD11b/CD18) on HEK293 cells (UniProt P11215). In words: inhibition of cell adhesion; calcein-labeled Mac-1-HEK293 cells preincubated with 1 μg/ml NIF, added to wells coated with 2 μM Dyn A; heparin 10 μg/ml on the coated wells where named; adhesion without inhibitors = 100 %.
Assay [2] concerns the target integrin Mac-1 on IC-21 murine macrophages (mouse (endogenous in IC-21)) (UniProt P05555).
Assay [3] addresses D100 fragment of fibrinogen (mol. weight 100,000 Da). Put plainly: ELISA; solid-phase binding: wells coated with Dyn A or fibrinogen D100 overnight at 4 °C, 3 % BSA; GST-αMI-domains in 20 mM Tris-HCl pH 7.4, 100 mM NaCl, 1 mM MgCl2, 1 mM CaCl2, 0.05 % Tween 20, 5 % glycerol, 1.5 h at 22 °C; detected with anti-GST mAb. (In general: In an ELISA, binding on a coated surface is turned into a signal by an enzyme label.)

We go through 2 substances from article PMC4481117.

Sequence of integrin Mac-1 on IC-21 murine macrophages (mouse (endogenous in IC-21)) (P05555 17-1153, chain 1 of 2): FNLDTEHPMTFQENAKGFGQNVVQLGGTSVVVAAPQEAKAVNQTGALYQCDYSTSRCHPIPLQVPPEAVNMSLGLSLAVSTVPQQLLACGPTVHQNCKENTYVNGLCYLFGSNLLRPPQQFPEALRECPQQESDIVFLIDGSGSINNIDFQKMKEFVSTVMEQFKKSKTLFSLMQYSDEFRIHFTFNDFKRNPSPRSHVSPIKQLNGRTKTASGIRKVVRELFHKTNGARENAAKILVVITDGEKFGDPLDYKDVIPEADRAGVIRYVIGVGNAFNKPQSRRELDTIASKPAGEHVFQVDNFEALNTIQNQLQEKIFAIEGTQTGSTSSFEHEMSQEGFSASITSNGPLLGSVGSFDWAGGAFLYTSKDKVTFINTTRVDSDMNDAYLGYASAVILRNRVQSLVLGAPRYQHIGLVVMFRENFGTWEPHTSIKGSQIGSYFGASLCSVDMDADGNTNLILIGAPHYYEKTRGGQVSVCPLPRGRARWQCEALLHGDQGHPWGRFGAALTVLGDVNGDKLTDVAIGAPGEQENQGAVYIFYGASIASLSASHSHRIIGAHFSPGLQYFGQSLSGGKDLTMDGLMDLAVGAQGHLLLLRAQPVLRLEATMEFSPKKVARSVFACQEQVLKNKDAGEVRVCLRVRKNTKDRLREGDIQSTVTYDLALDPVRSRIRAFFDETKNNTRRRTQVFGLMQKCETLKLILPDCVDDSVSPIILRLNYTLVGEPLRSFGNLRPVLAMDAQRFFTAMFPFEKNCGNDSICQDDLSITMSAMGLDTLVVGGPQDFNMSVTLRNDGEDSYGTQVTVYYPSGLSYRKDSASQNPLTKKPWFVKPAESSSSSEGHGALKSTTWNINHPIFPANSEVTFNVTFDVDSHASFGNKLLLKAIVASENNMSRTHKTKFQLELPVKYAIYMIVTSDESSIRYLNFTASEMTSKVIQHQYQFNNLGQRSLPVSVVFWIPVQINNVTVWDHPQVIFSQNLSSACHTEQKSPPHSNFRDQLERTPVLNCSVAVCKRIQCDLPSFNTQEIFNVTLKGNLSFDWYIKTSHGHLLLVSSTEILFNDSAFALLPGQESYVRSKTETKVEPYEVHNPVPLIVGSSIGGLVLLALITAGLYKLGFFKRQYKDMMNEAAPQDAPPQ
Sequence of integrin Mac-1 on IC-21 murine macrophages (mouse (endogenous in IC-21)) (P11835 24-771, chain 2 of 2, further chain): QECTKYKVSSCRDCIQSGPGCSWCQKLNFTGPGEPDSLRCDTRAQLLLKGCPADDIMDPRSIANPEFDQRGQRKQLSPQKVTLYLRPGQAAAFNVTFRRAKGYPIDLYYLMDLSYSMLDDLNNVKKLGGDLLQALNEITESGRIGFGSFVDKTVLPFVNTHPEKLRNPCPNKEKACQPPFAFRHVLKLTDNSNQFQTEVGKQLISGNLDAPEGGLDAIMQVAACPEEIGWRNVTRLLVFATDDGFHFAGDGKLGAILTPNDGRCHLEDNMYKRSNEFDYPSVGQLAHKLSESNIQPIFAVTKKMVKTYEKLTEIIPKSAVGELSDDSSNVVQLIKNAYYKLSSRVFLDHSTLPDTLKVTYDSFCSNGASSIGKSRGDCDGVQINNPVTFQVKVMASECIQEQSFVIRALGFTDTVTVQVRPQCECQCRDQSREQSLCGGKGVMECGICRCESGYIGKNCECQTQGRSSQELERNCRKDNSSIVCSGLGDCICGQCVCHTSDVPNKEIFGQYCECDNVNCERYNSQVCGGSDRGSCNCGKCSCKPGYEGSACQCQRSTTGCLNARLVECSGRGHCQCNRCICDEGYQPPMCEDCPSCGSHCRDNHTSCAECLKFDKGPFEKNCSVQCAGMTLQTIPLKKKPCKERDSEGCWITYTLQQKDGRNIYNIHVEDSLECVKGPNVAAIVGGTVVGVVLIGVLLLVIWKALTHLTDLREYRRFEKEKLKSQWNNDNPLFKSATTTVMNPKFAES

For “Neutrophil inhibitory factor (NIF) (natural protein)”, in assay [1], the percent inhibition of the adhesion of Mac-1-HEK293 cells to Dyn A (2 μM coating) was 65% and the percent inhibition of the adhesion of Mac-1-HEK293 cells to Dyn A (2 μM coating), NIF combined with heparin is greater than 95%. In assay [2], this substance showed an inhibition by NIF (2 μg/ml) of the phagocytosis of Dyn A-coated beads by IC-21 macrophages (blocked pair: Dyn A and Mac-1) of 70%.
In turn, “GST-αMI-domain, active conformation (residues Glu123-Lys315) (from UniProt P11215 139-331) (domain or fragment)” showed a fold binding over the nonactive αMI-domain in assay [3] of 3.5 fold.
